Here are results for 4 substances from article PMC5051681.

The target in assay [1] is C1a - 10 nm - C2 SPASM biosensor (human) (UniProt P17252). In words: FRET or BRET; change in heteroFRET after addition of free calcium against the concentration of C1a - 10 nm - C2; Hill binding model; half-maximal value taken as an estimate of the dissociation constant.
Assay [2] has as its target PKCα sensor (N-terminal mCer, C-terminal mCit) with a TEV protease site between the C2 and kinase domains (human) (UniProt P17252). Nature of the assay: dynamic light scattering; sensor pre-treated with TEV protease or BSA, or C2-mCit; relative increase in particle mass after 2 min with free calcium, matched concentration.
For assay [3], the target named is regulatory domains of PKCα with mCer (N-terminal TEV product of the PKCα sensor cut between C2 and kinase) (human). Described as above.
Assay [4] deals with PKC alpha C2 (UniProt P17252). The conditions noted are these: cited from earlier work.

Consider “C1a - 10 nm - C2 SPASM biosensor (from UniProt P17252 32-100; P17252 158-292)”, for which, in assay [1], the Kd (as a rule, the concentration at which binding is half-saturated) was 0.0611 µM.

With “PKCα sensor (N-terminal mCer, C-terminal mCit) with a TEV protease site between the C2 and kinase domains (from UniProt P17252 1-672) (natural protein)”, the mean particle size increase after free calcium (DLS, normalised) in assay [2] worked out at 5.61.

As to “regulatory domains of PKCα with mCer (N-terminal TEV product of the PKCα sensor cut between C2 and kinase) (domain or fragment)”, the mean particle size increase after free calcium (DLS, normalised) in assay [3] stood at 2.61.

As to PKC alpha C1a (from UniProt P17252), the Kd in assay [4] was 0.004 µM.
